# Experimental data: patent US8026218 (UNIVERSITY OF ARIZONA, dated 2011)
# Like-named read-outs stand apart in the source and are kept apart here. Bridge positions count the residues as written; N and C are the ends. Square brackets hold non-standard residues; d marks the D form. Ends that are not written are not given here. * marks the point of attachment. NH(3,5-(CF3)2-benzyl) = FC(F)(F)c1cc(CN*)cc(C(F)(F)F)c1; OBzl(3,5-(CF3)2) = FC(F)(F)c1cc(CO*)cc(C(F)(F)F)c1; Met(O) = CS(=O)CC[C@H](N)C(=O)O; NMe(benzyl) = CN(Cc1ccccc1)*; Abu = CC[C@H](N)C(=O)O; NHBn = c1ccc(CN*)cc1; OBn = c1ccc(CO*)cc1; βAla = NCCC(=O)O
# Legend:
# human δ opioid receptor [1] = target: T1, human δ opioid receptor (human, UniProt P41143 1-372); assay: competition vs [3H]DPDPE, hDOR cell membranes
# T1 construct: whole, on cells; membrane preparations of the transfected cells were used; also called hDOR; DOR
# T1 sequence (P41143 whole entry, stated change not applied): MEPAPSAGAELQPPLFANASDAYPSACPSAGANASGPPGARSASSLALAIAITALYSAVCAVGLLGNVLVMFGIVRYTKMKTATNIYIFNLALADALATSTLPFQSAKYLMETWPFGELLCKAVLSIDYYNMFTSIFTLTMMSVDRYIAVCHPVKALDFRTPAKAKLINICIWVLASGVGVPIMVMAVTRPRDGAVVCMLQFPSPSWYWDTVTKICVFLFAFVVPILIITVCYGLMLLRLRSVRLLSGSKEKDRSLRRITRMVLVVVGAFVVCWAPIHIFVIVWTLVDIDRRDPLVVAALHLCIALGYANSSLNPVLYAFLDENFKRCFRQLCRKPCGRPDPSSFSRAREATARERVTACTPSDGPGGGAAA
# human δ opioid receptor [2] = target: T1, human δ opioid receptor; assay: cell-based or functional assay
# [3] = target: µ opioid receptor of the guinea pig isolated ileum (guinea pig, UniProt P97266 1-98); assay: cell-based or functional assay
# guinea pig NK1 receptor [4] = target: guinea pig NK1 receptor (guinea pig, UniProt P30547 1-407); assay: cell-based or functional assay
# Target sequence in this assay (P30547 whole entry): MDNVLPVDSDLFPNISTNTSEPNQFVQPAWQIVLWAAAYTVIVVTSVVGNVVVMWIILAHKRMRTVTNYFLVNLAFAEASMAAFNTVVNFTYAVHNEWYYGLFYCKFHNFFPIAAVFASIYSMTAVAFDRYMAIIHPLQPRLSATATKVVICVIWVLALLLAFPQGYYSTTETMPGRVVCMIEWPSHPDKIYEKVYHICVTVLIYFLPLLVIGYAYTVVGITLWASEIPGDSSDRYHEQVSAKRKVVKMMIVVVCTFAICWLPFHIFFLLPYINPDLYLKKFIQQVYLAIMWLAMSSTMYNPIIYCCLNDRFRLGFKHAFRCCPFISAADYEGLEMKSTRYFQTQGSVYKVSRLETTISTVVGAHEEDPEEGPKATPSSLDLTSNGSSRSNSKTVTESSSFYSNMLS
# rat NK1 receptor [5] = target: T2, rat NK1 receptor (rat, UniProt P14600 1-407); assay: competition vs [3H]substance P, membranes of rNK1-transfected CHO cells
# T2 construct: whole, on cells; Assayed as membrane preparations of transfected CHO cells; also called rNK1; rNK-1
# T2 sequence (P14600 whole entry): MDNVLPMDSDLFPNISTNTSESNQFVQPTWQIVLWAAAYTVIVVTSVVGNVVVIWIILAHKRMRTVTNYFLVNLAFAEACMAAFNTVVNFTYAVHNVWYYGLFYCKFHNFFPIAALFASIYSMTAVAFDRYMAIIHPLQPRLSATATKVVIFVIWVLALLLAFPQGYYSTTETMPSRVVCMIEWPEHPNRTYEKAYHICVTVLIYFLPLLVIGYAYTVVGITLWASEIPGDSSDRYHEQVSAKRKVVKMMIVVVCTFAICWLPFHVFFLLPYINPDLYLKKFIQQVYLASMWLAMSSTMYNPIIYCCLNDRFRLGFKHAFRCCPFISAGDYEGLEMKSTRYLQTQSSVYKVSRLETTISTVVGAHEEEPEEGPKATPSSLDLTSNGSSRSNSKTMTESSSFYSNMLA
# human NK1 receptor [6] = target: T3, human NK1 receptor (human, UniProt P25103 1-407); assay: competition vs [3H]substance P, membranes of hNK1-transfected CHO cells
# T3 construct: whole, on cells; Assayed as membrane preparations of transfected CHO cells; also called hNK1; human neurokinin-1 receptor
# T3 sequence (P25103 whole entry): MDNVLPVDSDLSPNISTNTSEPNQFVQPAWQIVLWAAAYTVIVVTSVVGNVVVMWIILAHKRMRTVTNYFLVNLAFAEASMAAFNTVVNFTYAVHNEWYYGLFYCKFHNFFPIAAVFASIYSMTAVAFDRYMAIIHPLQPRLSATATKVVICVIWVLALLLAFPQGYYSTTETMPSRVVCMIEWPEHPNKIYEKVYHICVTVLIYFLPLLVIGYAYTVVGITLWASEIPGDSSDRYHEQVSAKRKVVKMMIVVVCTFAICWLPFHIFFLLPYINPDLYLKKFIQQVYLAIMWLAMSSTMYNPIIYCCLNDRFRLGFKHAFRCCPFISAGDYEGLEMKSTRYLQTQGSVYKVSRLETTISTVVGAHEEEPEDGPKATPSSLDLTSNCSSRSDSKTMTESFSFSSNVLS
# human δ opioid receptor [7] = target: T4, human δ opioid receptor (human, UniProt P41143 1-372); assay: competition vs [3H]DPDPE, membranes of hDOR-transfected HN9.10 cells
# T4 construct: whole, on cells; Assayed as membrane preparations of transfected cells; also called hDOR; DOR
# T4 sequence (P41143 whole entry, stated change not applied): as the sequence (P41143 whole entry, stated change not applied) above
# rat NK1 receptor [8] = target: T2, rat NK1 receptor; assay: competition vs [3H]substance P, membranes of rNK1-transfected CHO cells; remark: listed apart in the source
# human δ opioid receptor [9] = target: T4, human δ opioid receptor; assay: cell-based or functional assay; remark: listed apart in the source
# guinea pig NK1 receptor [10] = target: guinea pig NK1 receptor (guinea pig, UniProt P30547 1-407); assay: cell-based or functional assay; remark: listed apart in the source
# Target sequence in this assay (P30547 whole entry): as the sequence (P30547 whole entry) above
# [11] = target: µ opioid receptor of the guinea pig isolated ileum (guinea pig); assay: cell-based or functional assay
# rat NK1 receptor [12] = target: T5, rat NK1 receptor (rat, UniProt P14600 1-407); assay: competition vs [3H]Substance P, rNK1 CHO cell membranes
# T5 construct: whole, on cells; membrane preparations of the transfected cells were used; also called rNK1; rNK-1
# T5 sequence (P14600 whole entry): as the sequence (P14600 whole entry) above
# rat µ opioid receptor [13] = target: T6, rat µ opioid receptor (rat, UniProt P33535 1-398); assay: cell-based or functional assay
# human δ opioid receptor [14] = target: T1, human δ opioid receptor; assay: cell-based or functional assay; remark: listed apart in the source
# human δ opioid receptor [15] = target: T1, human δ opioid receptor; assay: competition vs [3H]DPDPE, hDOR cell membranes; remark: listed apart in the source
# human NK1 receptor [16] = target: T7, human NK1 receptor (human, UniProt P25103 1-407); assay: competition vs [3H]Substance P, hNK1 CHO cell membranes
# T7 construct: whole, on cells; membrane preparations of the transfected cells were used; also called hNK1; human neurokinin-1 receptor
# T7 sequence (P25103 whole entry): as the sequence (P25103 whole entry) above
# rat µ opioid receptor [17] = target: T6, rat µ opioid receptor; assay: competition vs [3H]DAMGO, rMOR cell membranes
# rat NK1 receptor [18] = target: T5, rat NK1 receptor; assay: competition vs [3H]Substance P, rNK1 CHO cell membranes; remark: listed apart in the source
# human δ opioid receptor [19] = target: T1, human δ opioid receptor; assay: competition vs [3H]DPDPE, hDOR cell membranes; remark: listed apart in the source
# rat NK1 receptor [20] = target: T5, rat NK1 receptor; assay: competition vs [3H]Substance P, rNK1 CHO cell membranes; remark: listed apart in the source
# rat µ opioid receptor [21] = target: T6, rat µ opioid receptor; assay: competition vs [3H]DAMGO, rMOR cell membranes; remark: listed apart in the source
# rat µ opioid receptor [22] = target: T6, rat µ opioid receptor; assay: cell-based or functional assay; remark: listed apart in the source
# human δ opioid receptor [23] = target: T1, human δ opioid receptor; assay: cell-based or functional assay; remark: listed apart in the source
# T6 sequence (P33535 whole entry): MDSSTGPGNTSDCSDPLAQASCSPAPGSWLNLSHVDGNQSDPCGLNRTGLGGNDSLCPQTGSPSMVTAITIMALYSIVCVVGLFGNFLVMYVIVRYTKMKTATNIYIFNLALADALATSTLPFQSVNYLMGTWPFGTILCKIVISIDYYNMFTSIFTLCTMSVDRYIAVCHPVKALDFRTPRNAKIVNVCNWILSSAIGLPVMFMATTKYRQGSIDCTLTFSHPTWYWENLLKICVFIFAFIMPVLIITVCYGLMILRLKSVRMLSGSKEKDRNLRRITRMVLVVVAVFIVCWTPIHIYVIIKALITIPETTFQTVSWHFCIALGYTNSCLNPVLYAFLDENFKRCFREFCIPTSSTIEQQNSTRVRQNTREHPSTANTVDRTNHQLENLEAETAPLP
# Sequence of µ opioid receptor of the guinea pig isolated ileum (P97266 whole entry): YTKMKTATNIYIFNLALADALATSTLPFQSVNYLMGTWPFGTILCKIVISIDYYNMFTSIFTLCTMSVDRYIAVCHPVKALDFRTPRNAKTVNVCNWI
binder,measurement,setting,value
"YAGFXPLW (D-Ala at 2; Nle at 5 (written X); C-terminal O-3,5-Bzl(CF3)2 ester, also called TY018) [TyrDAlaGlyPheNleProLeuTrpOBn(CF3)2]",Ki,human δ opioid receptor [1],1.8 nM
same,GTP binding EC50,human δ opioid receptor [2],4 nM
same,GTP binding Emax,human δ opioid receptor [2],131%
same,GPI/LMMP IC50,[3],372 nM
same,GPI/LMMP SP antagonist Ke,guinea pig NK1 receptor [4],7.9 nM
"H-Y[dA]GFPLW-{NH(3,5-(CF3)2-benzyl)} (also: TFA salt, TFA salt; also called TY012) [H-Tyr-D-Ala-Gly-Phe-Pro-Leu-Trp-NH-3,5-Bzl(CF3)2]",Ki,rat NK1 receptor [5],33 nM
same,LogIC50,rat NK1 receptor [5],-7
same,Ki,human NK1 receptor [6],0.61 nM
"H-Y[dA]GFPLW-NHBn (also: TFA salt, TFA salt; also called TY008) [H-Tyr-DAla-Gly-Phe-Pro-Leu-Trp-NH-Bzl]",Ki,human NK1 receptor [6],14 nM
"H-Y[dA]GFPLW-{NMe(benzyl)} (also: TFA salt, TFA salt; also called TY010) [H-Tyr-D-Ala-Gly-Phe-Pro-Leu-Trp-NMe-Bzl]",Ki,human NK1 receptor [6],1.6 nM
same,LogIC50,human NK1 receptor [6],-8.5
"H-Y[dA]GF[Met(O)]PLW-{OBzl(3,5-(CF3)2)} (also: TFA salt, TFA salt; also called TY023) [H-Tyr-D-Ala-Gly-Phe-Met(O)-Pro-Leu-Trp-O-3,5-Bzl(CF3)2]",Ki,human δ opioid receptor [7],4.8 nM
same,LogIC50,human δ opioid receptor [7],-7.92
same,IC50,rat NK1 receptor [8],54.5 nM
same,LogIC50,rat NK1 receptor [8],-7.27
same,[35S]GTP-γ-S binding Emax,human δ opioid receptor [9],53%
same,[35S]GTP-γ-S binding LogEC50,human δ opioid receptor [9],-8.73
same,Substance P GPI antagonist Ke,guinea pig NK1 receptor [10],7.8 nM
same,GPI (µ) opioid agonist IC50,[11],154 nM
Y[dA]GF[Abu]W-{O‑Bzl(CF3)2} (also called NP33) [Tyr-DAla-Gly-Phe-α-Abu-Trp-O-Bzl(CF3)2],Ki,rat NK1 receptor [12],1.2 nM
same,GTP EMax,rat µ opioid receptor [13],32
same,GTP EMax,human δ opioid receptor [14],43
same,Ki,human δ opioid receptor [15],1.6 nM
same,Ki,human NK1 receptor [16],0.12 nM
same,Ki,rat µ opioid receptor [17],11.4 nM
Y[dA]GF[βAla]W-{O‑Bzl(CF3)2} (also called NP32) [Tyr-DAla-Gly-Phe-β-Ala-Trp-O-Bzl(CF3)2],Ki,rat NK1 receptor [12],1.6 nM
same,GTP EMax,rat µ opioid receptor [13],70
same,GTP EMax,human δ opioid receptor [14],87
same,Ki,rat µ opioid receptor [17],11.2 nM
"Y[dA]GFPLW-{OBzl(3,5-(CF3)2)} (also called TY001) [TyrDAlaGlyPheProLeuTrpOBn(CF3)2]",IC50,rat NK1 receptor [18],21.7 nM
"H-Y[dA]GFPLW-OBn (also: TFA salt, TFA salt; also called TY011) [H-Tyr-DAla-Gly-Phe-Pro-Leu-Trp-O-Bzl]",Ki,rat NK1 receptor [5],270 nM
same,LogIC50,rat NK1 receptor [5],-6.1
same,Ki,human NK1 receptor [6],100 nM
same,LogIC50,human NK1 receptor [6],-6.7
"H-Y[dA]GFPLW-{OBzl(3,5-(CF3)2)} (also: TFA salt, TFA salt; also called TY001) [H-Tyr-DAla-Gly-Phe-Pro-Leu-Trp-O-3,5-Bzl(CF3)2]",Ki,rat NK1 receptor [5],1.6 nM
same,LogIC50,rat NK1 receptor [5],-8.3
same,Ki,human NK1 receptor [6],0.0023 nM
same,LogIC50,human NK1 receptor [6],-11.3
"Y[dC]GFCPLW-{NH(3,5-(CF3)2-benzyl)} (disulfide 2-5, cyclic; also called TY039; [D-Cys2, Cys5]TY027) [Tyr[DCysGlyPheCys]ProLeuTrpNHBn(CF3)2]",Ki,human δ opioid receptor [19],11 nM
same,LogIC50,human δ opioid receptor [19],-7.6
same,LogIC50,rat NK1 receptor [20],-5.8
same,Ki,rat µ opioid receptor [21],200 nM
same,LogIC50,rat µ opioid receptor [21],-6.4
same,[35S]GTPγS binding EC50,rat µ opioid receptor [22],118 nM
same,[35S]GTPγS binding Emax,rat µ opioid receptor [22],17%
same,[35S]GTPγS binding LogEC50,rat µ opioid receptor [22],-6.9
same,[35S]GTPγS binding EC50,human δ opioid receptor [23],0.9 nM
same,[35S]GTPγS binding Emax,human δ opioid receptor [23],37%
same,[35S]GTPγS binding LogEC50,human δ opioid receptor [23],-9
